Data taken from the nanobody polyreactivity screen of Harvey et al. (2022).

experiment: yeast display, Sf9 membrane polyspecificity reagent, FACS + sequencing; frameworks hold sequencing errors
How it was run: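 A nanobody's polyreactivity label depends on the gate it was sorted from. Yeast display cells were stained with 10% biotinylated, detergent-solubilized Sf9 membrane reagent for 1 hour at 4 °C, enriched on streptavidin microbeads and sorted by FACS. The low and high (top ~1%) gates were set on anti-HA fluorescence for expression and streptavidin fluorescence for reagent binding.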

Question: Which “polyreactivity (PSR sort gate)” value does the source give for “QVQLVESGGGLVQAGGSLRLSCAASGRTFYYSMGWYRQAPGKERYADSVKGRFTISRDNAKNTVYLQMNSLKPEDTAVYYCSAKVPEPPSLDESDYWGQGTQVTVSS” here?
Answer: low polyreactivity

Question: For “QVQLVESGGGLVQAGGSLRLSCAASGRTFYYYAMGWYRQAPGKERELVAAITSGGSTKYADSVKGRFTISRDNAKNTVYLQMNSLKPEDTAVYYCAKRYFSSSRYYYWGQGTQVTVSS”, which “polyreactivity (PSR sort gate)” value is on record?
Answer: high polyreactivity

Question: With “QVQLVESGGGLVQAGGSLRLSCAASGRTFYYYAMGWYRQAPGKERELVASISRRGGSTYYADSVKGRFTISRDNAKNTVYLQMNSLKPEDTAVYYCAASHYHGYSRMDYWGQGTQVTVSS” as the sequence, how does the “polyreactivity (PSR sort gate)” value read?
Answer: high polyreactivity

Question: Which “polyreactivity (PSR sort gate)” value does the source give for “QVQLVESGGGLVQAGGSLRLSCAASGRTFYYYAMGWYRQAPGKERELVASISSSGRTYYADSVKGRFTISRDNAKNTVYLQMNSLKPEDTAVYYCAKVWSSSYYRYGYWGQGTQVTVSS” here?
Answer: high polyreactivity

Question: Which “polyreactivity (PSR sort gate)” value does the source give for “QVQLVESGGGLVQAGGSLRLSCAASGRTFYYYAMGWYRQAPGKEREMVATISGGSSTNYADSVKWRFTISRDNAKNTVYLQMNSLKPEDTAVFYCAARWWRGGGYRPNYYKLKYDYWGQGTQVTVSS” here?
Answer: high polyreactivity

Question: With “QVQLVESGGGLVQAGGSLRLSCAASGRTFYYYDMGWYRQAPGKERELVAAISASGGSTYYADSVKGRFTISRDNAKNTVYLPMNSLKPDDTAVYYCAATLYHYWYSDFDYWGQGTQVTVSS” as the sequence, how does the “polyreactivity (PSR sort gate)” value read?
Answer: high polyreactivity

Question: For “QVQLVESGGGLVQAGGSLRLSCAASGRTFYYYGMGWYRQAPGKERELVATISWSGGSTYYADSVKGRFTISRDNAKNTVYLQMNSLKPEDTAVYYSAADGQFLYDHIEVDYWGQATQVTVSS”, which “polyreactivity (PSR sort gate)” value is on record?
Answer: low polyreactivity

Question: Which “polyreactivity (PSR sort gate)” value does the source give for “QVQLVESGGGLVQAGGSLRLSCAASGRTFYYYTMGWYRQAPGKERELVAAIRGSGRTYYADSVKGRFTISRDNAKNTVYLQMNSLKPEDTAVYYCAAETGYTIRYDYWGQGTQVTVSS” here?
Answer: high polyreactivity

Question: With “QVQLVESGGGLVQAGGSLRLSCAASGRTFYYYYTMGWYRQAPGKERELVAAISRSGSTNYADSVKGRFTISRDNAKNSVYLQMNSLKPEDTAVYYCAKETNRVGRYQWGQGTQVTVSS” as the sequence, how does the “polyreactivity (PSR sort gate)” value read?
Answer: low polyreactivity

Question: For “QVQLVESGGGLVQAGGSLRLSCAASGRTFYYYYTMGWYRQAPGKERELVAAISRSGSTNYADSVKGRFTISRDNAKNTVYLQMNSLKPEDTAVYYCAKETNRVGRYHCGQGTQVTVSS”, which “polyreactivity (PSR sort gate)” value is on record?
Answer: low polyreactivity

Question: For “QVQLVESGGGLVQAGGSLRLSCAASGRTIAAYAMGWYRQAPGKERELVAAISRSGGSTYYADSVKGRFTISRDNAKNTVYLQMNSLKPEDTAVYYCAAQRQYGKFDYWGQGTQVTVSS”, which “polyreactivity (PSR sort gate)” value is on record?
Answer: high polyreactivity

Question: With “QVQLVESGGGLVQAGGSLRLSCAASGRTIASYAMGWYRQAPGKERELVAAITSGGSTYYADSVKGRFTISRDNAKNTVYLQMNSLKPEDTAVYYCARIHAIWRGYDYWGQGTQVTVSS” as the sequence, how does the “polyreactivity (PSR sort gate)” value read?
Answer: low polyreactivity

Question: Which “polyreactivity (PSR sort gate)” value does the source give for “QVQLVESGGGLVQAGGSLRLSCAASGRTIASYTMGWYRPAPGKERELVAAISKSGGSTYYADSVKGRFTISRDNAKNTVYLQMNSLKPEDTAVYYCAKRRSGNVRKYDYWGQGTQVTVSS” here?
Answer: high polyreactivity

Question: For “QVQLVESGGGLVQAGGSLRLSCAASGRTIASYTMGWYRQAPGKERELVAAISKSGGSTYYADSVKGRFTISRDNAKNTVYLQMNSLKPEDTAVYYCAAGVPFWFWFEMDYWGQGTQVTVSS”, which “polyreactivity (PSR sort gate)” value is on record?
Answer: high polyreactivity

Question: Which “polyreactivity (PSR sort gate)” value does the source give for “QVQLVESGGGLVQAGGSLRLSCAASGRTIFYYAMGWYRQAPGKERELVATITKRGGSTYYADSVKGRFTISRDNAKNTVYLQMNSLKPEDTALYYCAARFVGWRGGRAYYYWGQGTQVTVAS” here?
Answer: high polyreactivity

Question: Which “polyreactivity (PSR sort gate)” value does the source give for “QVQLVESGGGLVQAGGSLRLSCAASGRTIGPYAMGWYRQAPRKERELVAAISWSVGSTYYADSVKGRFTISRDNAKNTVYLQMNSLKPVDTAVYFCGAVYYSHVYYWGQGTQVTVSS” here?
Answer: high polyreactivity

Question: For “QVQLVESGGGLVQAGGSLRLSCAASGRTIGSNVMGWYRQAPGKERELVAAITYSGVSTYADSVKGRFTISRDNAKNTVYLQINSLKPEDTAVYYCNAYPTTYYQQYDYWGQGTQVTVSS”, which “polyreactivity (PSR sort gate)” value is on record?
Answer: low polyreactivity

Question: Which “polyreactivity (PSR sort gate)” value does the source give for “QVQLVESGGGLVQAGGSLRLSCAASGRTIIVYAMGWYRQAPGKERELVASITGIGDRTYYADSVKGRFTISRDNAKNTVYLQMNSLKPEDTAVYYCAKYGRTRFYYWGQGTQVTVSS” here?
Answer: high polyreactivity

Question: With “QVQLVESGGGLVQAGGSLRLSCAASGRTILHYAMGWYSQAPGKERELVASISSGVSTHYADSVKGRFTISRDNAKNTVYLQMNSLIPEDTAVYDCAARPYRIGRYGYDYDYWGQGTQVTVSS” as the sequence, how does the “polyreactivity (PSR sort gate)” value read?
Answer: high polyreactivity

Question: With “QVQLVESGGGLVQAGGSLRLSCAASGRTIQWYAMGWYRQAPGKERELVAGISFSGGSTYYADSVKGRFTISRDNAKNTVYLQMNSLKPEDTAVYYCNAQGYTTYRGDYWGQGTQVTVSS” as the sequence, how does the “polyreactivity (PSR sort gate)” value read?
Answer: high polyreactivity

Question: Which “polyreactivity (PSR sort gate)” value does the source give for “QVQLVESGGGLVQAGGSLRLSCAASGRTIRGNAMGWYRQAPGKERELVAAIRWNGGSTYYADSVKGRFTISRDNAKNTVYLQMNSLKPEDSAVSYCAVSYWYSRYDYWGQGTQVTVSS” here?
Answer: high polyreactivity

Question: For “QVQLVESGGGLVQAGGSLRLSCAASGRTIRRYAMGWYRQAPGKERELVAAITISGGSTYYADSVKGRFTISRDNAKNTVYLQMNSLKPEDTAVYYCAAQPWRALGYYYWGQGTQVTVSS”, which “polyreactivity (PSR sort gate)” value is on record?
Answer: high polyreactivity

Question: Which “polyreactivity (PSR sort gate)” value does the source give for “QVQLVESGGGLVQAGGSLRLSCAASGRTIRVNAMGWYRQAPRKERELVAAISRSTGDTYYADSVKGRFTNSRDNAKNTVYLQMHSLKPEDTAVYYCAADVPGGEGDYAYEYWGQGTQVNVSS” here?
Answer: low polyreactivity

Question: Which “polyreactivity (PSR sort gate)” value does the source give for “QVQLVESGGGLVQAGGSLRLSCAASGRTIRWNAMGWYRQAPGKERELVAAITSRGGSTYYADSVKGRFTISRDNAKNTVYLQMISLKPEDTAVSYCAKQPKPPPVTGYDYSGQGTQVTVSS” here?
Answer: high polyreactivity

Question: Which “polyreactivity (PSR sort gate)” value does the source give for “QVQLVESGGGLVQAGGSLRLSCAASGRTIRYNAMGWYRHAPGKERELVAAITGSGGSTYYADSVKGRFTISRDNAKNTVYLQMNSLKPEDTAAYSCNAVGIWFPIRLIVPYDYWGQGTQVTVSS” here?
Answer: low polyreactivity

Question: For “QVQLVESGGGLVQAGGSLRLSCAASGRTIRYYSMGWYRQAPGKESELVAAINYSGGRTYYADSVKGRFTISRDNSMNTVYLQLNSLKPEDTAVYYCNAVLGPYFPKFDYWGQGTQVTVSS”, which “polyreactivity (PSR sort gate)” value is on record?
Answer: high polyreactivity

Question: Which “polyreactivity (PSR sort gate)” value does the source give for “QVQLVESGGGLVQAGGSLRLSCAASGRTIRYYVMGWYRQAPGKERELVAAISSGGRTNYADSVKGRFTISRDNAKNTVYLQMNSLKPEDTAVYYCAADLWYYWTATRAFDYWGQGTQVTVSS” here?
Answer: high polyreactivity

Question: For “QVQLVESGGGLVQAGGSLRLSCAASGRTISWYAMGRYRQAPGKERELVAAITYSGGSTYYAVSVKGRFTISRDNAKNTVYLQMNSLKPEDTAVYYCAADGRVREYDYWGQGTQVTVSS”, which “polyreactivity (PSR sort gate)” value is on record?
Answer: high polyreactivity

Question: For “QVQLVESGGGLVQAGGSLRLSCAASGRTITWYAMGWYRQAPGTERELVAAITRTGRTTYADSVKGRFTISRDNAKNTVYLQMNSLKPEDTAVYYCAARRWGEYDYWGQGTQVTVSS”, which “polyreactivity (PSR sort gate)” value is on record?
Answer: high polyreactivity

Question: With “QVQLVESGGGLVQAGGSLRLSCAASGRTIVFNAMGWYRQAPGKERELVAAITKNGGSTYYADSVKGRFTISRDNAKNTVYLQMNSLKPEDTAVYYCAVRRGYPFFYWGQGTQVTVSS” as the sequence, how does the “polyreactivity (PSR sort gate)” value read?
Answer: low polyreactivity

Question: For “QVQLVESGGGLVQAGGSLRLSCAASGRTIYFNVMGWYRQAPGKERELVAAISGGGSTNYADSVKGRYTISRDNAKNTVYLQMNSLKPEDTAVYYCATGYYSGLIDDYWGQGTQVTVSS”, which “polyreactivity (PSR sort gate)” value is on record?
Answer: low polyreactivity

Question: With “QVQLVESGGGLVQAGGSLRLSCAASGRTIYFYTMGWYRQAPGKERELVATAITSGGCTNYAVSVKGRFTISRDNAKNTVHLLMNSRKPEDTAVYYCAAVPTEFGNRLEYDYWGQGTQVTVSS” as the sequence, how does the “polyreactivity (PSR sort gate)” value read?
Answer: low polyreactivity

Question: For “QVQLVESGGGLVQAGGSLRLSCAASGRTIYQYAMGWYRQAPGKERELVAAISRGGSTNYADSLKGRFTISRDNAKNTVFLQMHSLKPEDTAVYYCASWYKFLSLKRLYERDYWGQGTQVTVSS”, which “polyreactivity (PSR sort gate)” value is on record?
Answer: high polyreactivity

Question: With “QVQLVESGGGLVQAGGSLRLSCAASGRTKQRKAMGWYRQAPGKERELVAAISSSGGSTYYADSVKGRFTISRDNAKNTVYLQMNSLKPEDTAVYYCAADGQFDDYYSLPFYYDYWGQGTHVTVSS” as the sequence, how does the “polyreactivity (PSR sort gate)” value read?
Answer: high polyreactivity

Question: Which “polyreactivity (PSR sort gate)” value does the source give for “QVQLVESGGGLVQAGGSLRLSCAASGRTLARNAMGWYRQAPGKERELVASINGRTTRTYYADSVKGRFTISRDNAKNTVYLQMNSLKPEDTAVYYCAADPPGYVYGKRYYWGQGTQVTVSS” here?
Answer: high polyreactivity

Question: Which “polyreactivity (PSR sort gate)” value does the source give for “QVQLVESGGGLVQAGGSLRLSCAASGRTLASNAMGWYRQAPGKERELVAAINRGGSTYYADSVKGRFTISRDNAKNTVYLQMNSLKPEDTAVYYCRFYSYWSWLGREYDYWGQGTQVTVSS” here?
Answer: low polyreactivity

Question: Which “polyreactivity (PSR sort gate)” value does the source give for “QVQLVESGGGLVQAGGSLRLSCAASGRTLDWNAMGWYRPAPGKERELVAAISWSGDSTYYADSVKGRFTISRDNAKNTVYLQMNSLKPEDTAVYYCAAAGVYYGVRGTTYAFDYWGQGTQVTVSS” here?
Answer: low polyreactivity

Question: For “QVQLVESGGGLVQAGGSLRLSCAASGRTLEDYVMGWYRQAPGKERELVAAIYWSGVSTYYADSVKGRFTISRDNAKNTVYLQMNSMKPEDTAVYYCAKDSTADELTGFDYWGQGTQVTVSS”, which “polyreactivity (PSR sort gate)” value is on record?
Answer: low polyreactivity

Question: For “QVQLVESGGGLVQAGGSLRLSCAASGRTLEIYTMGLNRQAPGKERELVAAISGGSTYYADSVKGRFTISRDNSKNTVYLQMNSLKPEDTAVYYCAARPYVFRYHRWTVDWRYDYWGQGTQVTVSS”, which “polyreactivity (PSR sort gate)” value is on record?
Answer: low polyreactivity

Question: With “QVQLVESGGGLVQAGGSLRLSCAASGRTLEQYAMGWYRQAPGKERELVAAINKSGARTYYADSVKGRFTISRDNAKNSVYLQMNSQKPEDTAVYYCNTVGPSYLFDYWGQGTQVTVSS” as the sequence, how does the “polyreactivity (PSR sort gate)” value read?
Answer: high polyreactivity

Question: With “QVQLVESGGGLVQAGGSLRLSCAASGRTLFRYAMGWYRQAPGKERELVAAISRSGGTTYYADSVKGRFTISRDNAKNTVYLQMNSLKPEDTAVYYCAARGRYKDGYRMDYWGQGTQVTVSS” as the sequence, how does the “polyreactivity (PSR sort gate)” value read?
Answer: high polyreactivity

Question: With “QVQLVESGGGLVQAGGSLRLSCAASGRTLFVYAMGWYRQAPGKEREFVAAIRWRGGSTYYADSVKGRFTISRDNAKNTVYLQMNSLKPEDTAVYYCAADTYWVKTDYLYGYWGQGTQVTVSS” as the sequence, how does the “polyreactivity (PSR sort gate)” value read?
Answer: high polyreactivity

Question: With “QVQLVESGGGLVQAGGSLRLSCAASGRTLGIYAMGWYIQAPGKERELVADISRDSSTYYADSVKGRFTISRDNAKNTVYLQMNSLKPEDTAVYYCNADQTPRDVTDWWYDYDYWGQGTQVTVSS” as the sequence, how does the “polyreactivity (PSR sort gate)” value read?
Answer: low polyreactivity
